Target: T1, Alcadein α-FLAG, wild type, dephosphorylated with λPPase (human, UniProt O94985-2 29-971, dephosphorylated with λPPase on the beads)
T1 sequence (looked up): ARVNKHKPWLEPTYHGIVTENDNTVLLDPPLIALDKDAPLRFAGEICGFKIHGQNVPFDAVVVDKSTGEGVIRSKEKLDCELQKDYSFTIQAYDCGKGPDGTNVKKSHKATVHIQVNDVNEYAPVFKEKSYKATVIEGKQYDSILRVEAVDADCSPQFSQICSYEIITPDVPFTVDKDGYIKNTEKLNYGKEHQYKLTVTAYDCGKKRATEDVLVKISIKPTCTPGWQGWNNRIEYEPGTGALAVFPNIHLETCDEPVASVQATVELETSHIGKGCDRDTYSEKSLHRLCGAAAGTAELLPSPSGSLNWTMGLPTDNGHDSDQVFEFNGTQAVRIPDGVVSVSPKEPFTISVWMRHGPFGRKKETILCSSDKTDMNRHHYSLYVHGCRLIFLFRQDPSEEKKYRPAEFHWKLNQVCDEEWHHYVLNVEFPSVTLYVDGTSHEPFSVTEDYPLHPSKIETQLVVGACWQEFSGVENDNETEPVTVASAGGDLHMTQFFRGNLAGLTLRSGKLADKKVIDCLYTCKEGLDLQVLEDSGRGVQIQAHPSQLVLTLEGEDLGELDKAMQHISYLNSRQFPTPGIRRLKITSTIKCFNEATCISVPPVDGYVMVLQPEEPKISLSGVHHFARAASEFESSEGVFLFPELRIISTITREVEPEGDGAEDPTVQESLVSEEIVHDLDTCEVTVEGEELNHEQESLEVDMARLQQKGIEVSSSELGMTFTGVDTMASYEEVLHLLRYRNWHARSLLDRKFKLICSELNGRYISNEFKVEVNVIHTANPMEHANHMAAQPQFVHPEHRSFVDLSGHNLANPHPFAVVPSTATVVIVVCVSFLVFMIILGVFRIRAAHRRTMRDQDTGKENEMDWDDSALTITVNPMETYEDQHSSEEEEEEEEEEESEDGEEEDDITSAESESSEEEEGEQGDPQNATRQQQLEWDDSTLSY
Test: pull-down

- recovery of HA-KLC1 relative to Alcα-FLAG without λPPase treatment: ~20%
B1: HA-KLC1 (kinesin light chain 1) (natural protein, UniProt O88447 1-541, looked up)
chain: MYDNMSTMVYIKEEKLENVTQDEIISKTKQVIQGLEALKNEHNSILQSLLETLKCLKKDDESNLVEEKSSMIRKSLEMLELGLSEAQVMMALSNHLNAVESEKQNVRAQVRRLCQENQWLRDELANTQQKLQKSEQSVAQLEEEKKHLEFMNQLKKYDDDISPSEDKDSDSSKEPLDDLFPNDEDEPGQGIQHSDSSAAAARQGYEIPARLRTLHNLVIQYASQGRYEVAVPSCKQALEDLEKTSGHDHPDVATMLNILALVYRDQNKYKDAANLLNDALAIREKTLGRDHPAVAATLNNLAVLYGKRGKYKEAEPLCKRALEIREKVLGKDHPDVAKQLNNLALLCQNQGKYEEVEYYYQRALGIYQTKLGPDRTPNVAKTKNNLASCYLKQGKFKQAETLYKEILTRAHEAEFGSVDDENKPIWMHAEEREECKGKQKDGSAFGEYGGWYKACKVDSPTVTTTLKNLGALYRRQGKFEAAETLEEAAMRSRKQGLDNVHKQRVAEVLNDPESMEKRRSRESLNMDVVKYESGPDGGEEA

From paper PMC5739299 (Molecular Biology of the Cell, 2017)
